Laboratory results reported in PMC6905151.
Read-outs that look alike come from different tables or passages of the source. One block for each substance: values may come before it.

What was measured:
[1] = molecular target: IgM-Fc (Fcμ2-4) wild-type, dimer of Cμ2-Cμ3-Cμ4 domains (human); assay: SPR; Biacore T200, 25 °C, 0.01 M HEPES, 0.15 M NaCl, 0.005% Surfactant P20, pH 7.4; IgM, IgM-Fc, Fcμ3-4 or IgM-Fc mutants immobilised on CM5 by amine coupling; analyte sIgFcμR 0.25 μM to 12 μM; steady state, 1:1 binding model
[2] = molecular target: IgM-Fc (Fcμ2-4) mutant M3 (D340S/Q341G/D342S/T343S) (human); assay: as above
[3] = molecular target: Fcμ3-4, dimer of Cμ3-Cμ4 domains (human); assay: as above
Chain of Fcμ3-4, dimer of Cμ3-Cμ4 domains (human) (P01871 other isoform, or with tags, fused parts or gaps): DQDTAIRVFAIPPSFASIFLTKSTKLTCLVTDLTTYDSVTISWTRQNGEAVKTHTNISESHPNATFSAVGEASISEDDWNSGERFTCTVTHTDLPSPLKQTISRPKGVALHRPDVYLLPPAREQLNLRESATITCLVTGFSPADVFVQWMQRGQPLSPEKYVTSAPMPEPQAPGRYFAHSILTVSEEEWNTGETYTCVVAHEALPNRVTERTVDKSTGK

[4] = molecular target: purified serum IgM (whole pentameric IgM) (human); assay: as above
[5] = molecular target: IgM-Fc (Fcμ2-4) wild-type, dimer of Cμ2-Cμ3-Cμ4 domains (human); assay: as above; remark: listed apart in the source
[6] = molecular target: IgM (Homo sapiens) (UniProt P01871); conditions: cited from earlier work
Chain of IgM (Homo sapiens) (P01871 whole entry): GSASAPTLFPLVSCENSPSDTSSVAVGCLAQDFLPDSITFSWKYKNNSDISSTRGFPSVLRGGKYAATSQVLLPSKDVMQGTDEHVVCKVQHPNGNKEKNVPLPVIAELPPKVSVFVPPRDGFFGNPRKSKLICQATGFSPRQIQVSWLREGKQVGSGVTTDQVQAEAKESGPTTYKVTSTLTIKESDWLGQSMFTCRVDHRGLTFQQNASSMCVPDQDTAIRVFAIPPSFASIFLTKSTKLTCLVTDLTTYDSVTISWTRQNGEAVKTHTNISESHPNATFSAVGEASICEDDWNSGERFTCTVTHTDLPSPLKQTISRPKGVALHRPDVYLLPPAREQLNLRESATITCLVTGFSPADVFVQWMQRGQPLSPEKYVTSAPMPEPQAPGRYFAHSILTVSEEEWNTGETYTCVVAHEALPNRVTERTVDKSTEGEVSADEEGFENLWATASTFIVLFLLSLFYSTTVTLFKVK

[7] = molecular target: IgM-Fc (Fcμ2-4) mutant M1 (K361D/D416R) (human); assay: SEC-MALS; SEC-MALLS on Superdex 200 Increase 5/150 with in-line miniDAWN detector and refractometer; peaks of the homodimeric Fcμ2-4 proteins from SEC
[8] = molecular target: IgM-Fc (Fcμ2-4) wild-type, dimer of Cμ2-Cμ3-Cμ4 domains (human); assay: as above
[9] = molecular target: IgM-Fc (Fcμ2-4) mutant M3 (D340S/Q341G/D342S/T343S) (human); assay: as above
[10] = molecular target: IgM-Fc (Fcμ2-4) mutant M2 (Q510R) (human); assay: as above

Chain of FcμR (cell surface) (O60667 17-390): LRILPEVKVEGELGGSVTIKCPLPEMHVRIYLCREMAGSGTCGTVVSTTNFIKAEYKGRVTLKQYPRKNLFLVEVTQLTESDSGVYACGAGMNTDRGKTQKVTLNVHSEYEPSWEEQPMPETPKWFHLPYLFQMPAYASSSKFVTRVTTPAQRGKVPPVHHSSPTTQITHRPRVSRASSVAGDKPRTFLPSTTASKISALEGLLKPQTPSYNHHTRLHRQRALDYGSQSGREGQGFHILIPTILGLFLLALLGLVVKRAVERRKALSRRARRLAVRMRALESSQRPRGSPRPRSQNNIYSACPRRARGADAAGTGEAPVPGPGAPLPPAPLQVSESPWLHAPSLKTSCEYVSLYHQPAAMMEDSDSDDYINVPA

Substance: FcμR (cell surface) (from UniProt O60667)
Kd [6]: 10 nM

Substance: IgM-Fc (Fcμ2-4) mutant M1 (K361D/D416R) (domain or fragment)
stoichiometry N [7]: 2

Substance: IgM-Fc (Fcμ2-4) wild-type, dimer of Cμ2-Cμ3-Cμ4 domains (domain or fragment)
stoichiometry N [8]: 2

Substance: IgM-Fc (Fcμ2-4) mutant M3 (D340S/Q341G/D342S/T343S) (domain or fragment)
stoichiometry N [9]: 2

Results, then the substance that gave them:

Kd [1]: 1830 nM
Kd [2]: 1450 nM
stoichiometry N (sIgFcμR per IgM-Fc homodimer) [3]: 2
Kd [4]: 2490 nM
stoichiometry N (sIgFcμR per IgM-Fc homodimer) [4]: 2
Kd [5]: 1150 nM
stoichiometry N (sIgFcμR per IgM-Fc homodimer) [5]: 2
Substance: soluble extracellular immunoglobulin-like domain of FcμR (domain or fragment)

stoichiometry N [10]: 2
Substance: IgM-Fc (Fcμ2-4) mutant M2 (Q510R) (domain or fragment)
